Measurements taken from patent US20260055441A1, “A PCR-ELISA ANALOGOUS ANTIBODY-FREE METHOD FOR DETECTING A TARGET NUCLEIC ACID IN A SAMPLE” (UNIVERSITÄT HEIDELBERG, priority 2022, published 2026).
Several values for one entry are separate records, joined by “and”; a condition that tells them apart may be missing. Equal values may be shown once. No end group written: not given here.

How the values were obtained:
latent papain P13 [1] = target: T1, latent papain P13 (Carica papaya, UniProt P00784); assay: Latent papain reactivation assay with thiol activators at 10 μM, rates normalized to 10 μM cysteine (FIG. 18); assay type: biochemical; conditions: activator 10 μM, latent papain 1 nM, Z-Phe-Arg-AMC 2 μM; for reaction rate compared to L-cysteine: pH 7; for normalized ratio rate/rate 10 μM cysteine of substrate hydrolysis after reactivation of latent papain: well buffer pH 7, no TCEP
T1 construct: purchased Sigma Aldrich (Munich, Germany); host or cells: Papaya latex (natural source)
T1 sequence (P00784 134-345): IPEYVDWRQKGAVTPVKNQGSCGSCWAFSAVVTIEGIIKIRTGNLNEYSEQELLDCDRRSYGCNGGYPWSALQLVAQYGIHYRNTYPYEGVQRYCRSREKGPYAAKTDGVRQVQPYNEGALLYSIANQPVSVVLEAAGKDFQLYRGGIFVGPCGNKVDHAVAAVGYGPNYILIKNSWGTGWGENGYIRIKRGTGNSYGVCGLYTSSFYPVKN
Method: All following described fluorometric assays (Examples 1-3) are based on the reaction of reversibly inactivated papain (latent papain) with an activator containing either sulfur or selenium (with the exception of TCEP). Different latent papain forms, buffer compositions and activators in various concentrations were compared. Papain was hereby transferred in buffer (standard well buffer consisted of 0.1 M phosphate pH 7, 4 mM EDTA, 0.01% Brij35 and if activators contained diselenides, 1 μM TCEP) mixed with activator and substrate inside 96 well plates (without prior washing of the plates). After reactivation, active papain hydrolyses the substrate Z-Phe-Arg-AMC (2 μM) and the resulting fluorescence was tracked every minute for 2 h. The slopes of the corresponding curves were calculated for the linear portion within the first 30 minutes and the resulting reaction rates were directly compared. Resulting reaction rates directly reflect reactivation efficiencies of each activator under each reaction condition. […] After addition of activator a fraction of latent papain is immediately reactivated in rather non-stoichiometric proportions. Complete reactivation can generally only be achieved with great excess of activator. The partial reactivation with smaller activator amounts appears almost instantaneously because the resulting reaction curve show linear progression from the start except for very low activator concentrations. After reactivation, all different latent papain forms result in the same active enzyme. If different latent papain forms show different reaction rates in identical activation assays, the efficiency of reactivation with the applied activator can be deduced. The same applies for reactivation of one latent papain form with different activators or reaction conditions.
Several thiol compounds and cysteine containing peptide activators (see Example 4.1) were compared for their potential to reactivate latent papain. To this end, the thiol compounds and cysteine containing peptide activators were utilized in reactivation assays (see Example 5, 5.2.2.2, fluorometric method 2) of papain P13 (see Example 1, 1.2) with an activator concentration of 10 μM. For thiols not completely soluble in phosphate buffer pH 7 at high concentrations, the 1 mM stock solution was prepared in DMSO, resulting in 1% DMSO in the reaction mixture. In order to normalize the observed reaction rates between assays, a 10 μM cysteine sample was additionally measured in every assay and reaction rates of the examined thiols were divided through the reaction rates produced by the 10 μM cysteine standard. Additionally, a measurement with 1 mM cysteine was performed in order to achieve maximal papain activation and therefore the maximal reaction rate within the confines of the assay. The resulting normalized rates are compared in FIG. 18.
Different assays of reactivating latent papain in solution were conducted in the course of this work. Various buffer compositions, supplements, 96 well plates, substrates, activators, concentrations as well as different latent papain forms were compared. In order to get an overview of all experiments, a standard method is described in the following and variations of this method are subsequently defined. First, the well buffer was prepared (0.1 M phosphate buffer pH 7, 4 mM EDTA, 0.01% Brij35). A 1 mM TCEP solution was prepared with 3 mM NaOH in 0.1 M Tris-HCl buffer pH 8. Papain substrate (Z-Phe-Arg-AMC or Suc-Leu-Leu-Val-Tyr-AMC) was prepared as a 200 μM solution in water and transferred equally to a PCR strip. Three serial dilutions of the activating agent with well buffer were used in the different experiments and the corresponding pipetting schemes are shown in Table 9. Papain was diluted to 0.1 μM with well buffer and transferred equally to a PCR strip. After preparation of the abovementioned solutions, TCEP (1 mM solution) was added to well buffer to yield a final TCEP concentration of 1.1 μM. […]

latent papain P13 [2] = target: T1, latent papain P13; assay: Screening of peptide-based papain activators, rates normalized to cysteine ethyl ester (FIG. 19, FIG. 20); assay type: biochemical; conditions: for normalized ratio rate/rate cysteine ethyl ester (CysEE): activator 50 nM, latent papain P13 1 nM, substrate 2 μM, pH 7
Method: L-Cysteine ethyl ester was utilized in identical peptide concentrations as a standard in order to calculate normalized reaction rates for each synthesized peptide.
[…] The assays were conducted in well buffer with 1 nM latent papain P13. In order to give a clear overview, only the normalized rates for activator concentrations of 50 nM are depicted and compared.
Additionally, 1 μM TCEP was added to each well of the cysteine concentration series in order to examine the influence of TCEP on reaction rates of thiols.
Different assays of reactivating latent papain in solution were conducted in the course of this work. Various buffer compositions, supplements, 96 well plates, substrates, activators, concentrations as well as different latent papain forms were compared. In order to get an overview of all experiments, a standard method is described in the following and variations of this method are subsequently defined. First, the well buffer was prepared (0.1 M phosphate buffer pH 7, 4 mM EDTA, 0.01% Brij35). A 1 mM TCEP solution was prepared with 3 mM NaOH in 0.1 M Tris-HCl buffer pH 8. Papain substrate (Z-Phe-Arg-AMC or Suc-Leu-Leu-Val-Tyr-AMC) was prepared as a 200 μM solution in water and transferred equally to a PCR strip. Three serial dilutions of the activating agent with well buffer were used in the different experiments and the corresponding pipetting schemes are shown in Table 9. Papain was diluted to 0.1 μM with well buffer and transferred equally to a PCR strip. […] 342.4 μL of TCEP containing well buffer was transferred to each well, followed by 3.8 μL papain solution. After mixing, 30 μL of the prepared activator concentrations (see Table 9) were added and mixed. In the last step, 3.8 μL of the substrate solution was added and mixed, to yield a final well composition of 0.1 M phosphate buffer pH 7, 1 nM papain, 2 μM substrate, activator (see Table 9), 4 mM EDTA, 0.01% Brij35 and 1 μM TCEP. For experiments with only one activator concentration of 10 μM, the transferred well buffer for each well was 368.6 μL, followed by 3.8 μL of papain, substrate and activator (1 mM in well buffer) respectively.

[3] = target: T2, dU-triazole-PEG3-ULR dimer (21) (not fully specified)
T2 chain: ULR

[4] = target: T3, latent papain, reversibly inactivated with S-methyl methanethiosulfonate (-S-S-CH3) (Carica papaya, UniProt P00784 134-345, catalytic Cys25 blocked as mixed disulfide -S-S-CH3); assay: cell-based or functional assay
T3 sequence: T1 sequence (P00784 134-345)

[5] = FIG. 20, concentration series 50 nM-10 μM

Molecule: OCCS [2-ME, 2-Mercaptoethan-1-ol]
- reaction rate compared to L-cysteine (latent papain P13 [1]): 70%

Molecule: CC(=O)Nc1ccc(S)cc1 [4-acetamidothiophenol, 4-Acetamidothiophenol]
- activator efficiency, in words (latent papain P13 [2]; [5]): more potent activators compared to the tripeptide
- rate relative to the tripeptide H2N-CLR-CONH2 (latent papain P13 [2]; concentration series 50 nM-10 μM (FIG. 20), selenocysteine prepared with TCEP): five times as efficient

Molecule: SCc1ccc(Cl)cc1 [4-chlorobenzyl mercaptan, 4-Chlorobenzyl mercaptan]
- normalized ratio rate/rate 10 μM cysteine of substrate hydrolysis after reactivation of latent papain (latent papain P13 [1]): 0.83

Molecule: Nc1nnc(S)s1 [5-Amino-1,3,4-thiadiazole-2-thiol]
- normalized ratio rate/rate 10 μM cysteine of substrate hydrolysis after reactivation of latent papain (latent papain P13 [1]): almost no papain activation potential at all

Molecule: N[C@H](CS)C(=O)O [D-cysteine]
- reaction rate compared to L-cysteine (latent papain P13 [1]): 70%

Molecule: N[C@@H](CCS)C(=O)O [L-homocysteine, L-Homocysteine]
- normalized ratio rate/rate 10 μM cysteine of substrate hydrolysis after reactivation of latent papain (latent papain P13 [1]): lower reaction rates

Molecule: CC(C)(S)[C@H](N)C(=O)O [L-penicillamine, L-Penicillamine]
- normalized ratio rate/rate 10 μM cysteine of substrate hydrolysis after reactivation of latent papain (latent papain P13 [1]): lower reaction rates

Molecule: O=C(O)CCP(CCC(=O)O)CCC(=O)O [TCEP, Tris(2-carboxyethyl)phosphine]
- activator efficiency, in words (latent papain P13 [2]; [5]): very little efficiency

Molecule: Sc1ccccc1 [thiophenol, Thiophenol]
- normalized ratio rate/rate 10 μM cysteine of substrate hydrolysis after reactivation of latent papain (latent papain P13 [1]): 4.86

Molecule: H2N-C-C-R-G-CONH2 (H-CCRG-NH2; cysteine pairing not given here) [H2N—CCRG-CONH2]
- normalized ratio rate/rate cysteine ethyl ester (CysEE) (latent papain P13 [2]): most potent activators

Molecule: H2N-C-F-R-CONH2 (H-Cys-Phe-Arg-NH2) [H2N—CFR—CONH2]
- normalized ratio rate/rate 10 μM cysteine of substrate hydrolysis after reactivation of latent papain (latent papain P13 [1]): more than twice as high

Molecule: H2N-C-L-C-G-CONH2 (H-CLCG-NH2; cysteine pairing not given here) [H2N—CLCG-CONH2]
- normalized ratio rate/rate cysteine ethyl ester (CysEE) (latent papain P13 [2]): most potent activators

Molecule: H2N-C-L-R-CONH2 (H-Cys-Leu-Arg-NH2) [H2N—CLR—CONH2]
- potency relative to (L-)cysteine (latent papain P13 [2]; [5]): almost four times as efficient
- normalized ratio rate/rate cysteine ethyl ester (CysEE) (latent papain P13 [2]): 1.8 and 1.81
- normalized ratio rate/rate 10 μM cysteine of substrate hydrolysis after reactivation of latent papain (latent papain P13 [1]): more than twice as high

Molecule: H2N-C-L-R-G-CONH2 (H-CLRG-NH2) [H2N—CLRG-CONH2]
- normalized ratio rate/rate cysteine ethyl ester (CysEE) (latent papain P13 [2]): 1.29

Molecule: H2N-C-L-R-G-COOH (H-CLRG-OH) [H2N—CLRG-COOH]
- normalized ratio rate/rate cysteine ethyl ester (CysEE) (latent papain P13 [2]): 0.51

B1: latent papain P23 (-S-S-(CH2)2-NH2) (protein)
chain: T1 sequence (P00784 134-345)
- reaction rate of Z-Phe-Arg-AMC hydrolysis after reactivation of latent papain (1 nM) with activator 1-15 nM [3]: papain P23, containing the positively charged amino group, was found to be by far the most efficiently reactivated latent papain form

Molecule: H-EGCGRG-OH [H2N-E-G-C-G-R-G-COOH]
- normalized ratio rate/rate cysteine ethyl ester after reactivation of latent papain P13 (1 nM), activator 50 nM [4]: < 1 rate/rate cysteine ethyl ester

Molecule: H-FVCEKG-OH [H2N-F-V-C-E-K-G-COOH]
- normalized ratio rate/rate cysteine ethyl ester after reactivation of latent papain P13 (1 nM), activator 50 nM [4]: < 1 rate/rate cysteine ethyl ester

Molecule: H-GGCGGG-OH [H2N-G-G-C-G-G-G-COOH]
- normalized ratio rate/rate cysteine ethyl ester after reactivation of latent papain P13 (1 nM), activator 50 nM [4]: < 1 rate/rate cysteine ethyl ester

Molecule: H-GKCLRG-OH [H2N-G-K-C-L-R-G-COOH]
- normalized ratio rate/rate cysteine ethyl ester after reactivation of latent papain P13 (1 nM), activator 50 nM [4]: < 1 rate/rate cysteine ethyl ester

Molecule: H-GLCLRG-OH (not fully specified) [H2N-G-L-C-L-R-G-COOH]
- normalized ratio rate/rate cysteine ethyl ester after reactivation of latent papain P13 (1 nM), activator 50 nM [4]: < 1 rate/rate cysteine ethyl ester

Molecule: H-SECLRG-OH [H2N-S-E-C-L-R-G-COOH]
- normalized ratio rate/rate cysteine ethyl ester after reactivation of latent papain P13 (1 nM), activator 50 nM [4]: < 1 rate/rate cysteine ethyl ester

Molecule: H-CLRG-OH [H2N-CLRG-COOH]
- normalized ratio rate/rate cysteine ethyl ester after reactivation of latent papain P13 (1 nM), activator 50 nM [4]: 0.51 rate/rate cysteine ethyl ester

Molecule: H-CLRG-NH2 [H2N-CLRG-CONH2]
- normalized ratio rate/rate cysteine ethyl ester after reactivation of latent papain P13 (1 nM), activator 50 nM [4]: 1.29 rate/rate cysteine ethyl ester

Molecule: H-CLRCG-OH (cysteine pairing not given here) [H2N-CLRCG-COOH]
- normalized ratio rate/rate cysteine ethyl ester after reactivation of latent papain P13 (1 nM), activator 50 nM [4]: 0.99 rate/rate cysteine ethyl ester

Molecule: H-Cys-Leu-Arg-NH2 [H2N-CLR-CONH2]
- normalized ratio rate/rate cysteine ethyl ester after reactivation of latent papain P13 (1 nM), activator 50 nM [4]: 1.81 rate/rate cysteine ethyl ester
- reaction rate after reactivation of latent papain P13 (1 nM), concentration series 50 nM-10 uM, against free cysteine [4]: ~4 fold of free cysteine

B2: dU-triazole-PEG3-ULR dimer (21) (peptide)
peptide: X-Leu-Arg-NH2
modifications: not fully specified (residue 1, N-terminus); printed as dU-triazole-PEG3-ULR; also: diselenide dimer
- normalized ratio rate/rate blank, P20 against P28 [4]: 2 fold of the normalized rate of P28
- normalized ratio rate/rate blank, activator at half equimolar concentration of papain (printed 500 µM; papain 1 nM) [4]: 33 fold of the background activity
- normalized ratio rate/rate blank, activator at the lowest concentration (printed 50 µM; series starts at 50 pM) [4]: 4 fold of the background activity
- reaction rate after reactivation of latent papain (1 nM), activator 10 nM, against DTBA (9) [4]: 23 fold of the rate with DTBA (9)
- reaction rate after reactivation of latent papain (1 nM), activator 10 nM, against DTT [4]: 159 fold of the rate with DTT
- reaction rate after reactivation of latent papain (1 nM), activator 50 nM, against DTBA (9) [4]: 9 fold of the rate with DTBA (9)
- reaction rate after reactivation of latent papain (1 nM), activator 50 nM, against DTT [4]: 128 fold of the rate with DTT
